Consider five substances from patent publication US20190062427A1.

The target of test [1] is human Siglec-9 expressed on human cells (human) (UniProt Q9Y336). The test can be described thus: flow cytometry on human primary dendritic cells, isotype control, PE secondary. (In general: In flow cytometry, cells or beads pass a laser one at a time.)
Test [2] shares this target. In words: flow cytometry on human primary macrophages, isotype control, PE secondary.
The target is the same in test [3]. In words: flow cytometry on human primary monocytes, isotype control, PE secondary.
Test [4] has the same target. The test can be described thus: cell-based or functional assay.
Test [5] has as its target Siglec-9-Fc (R&D Systems, catalog number 1139-SL-050) (human) (UniProt Q9Y336). In words: blocking assay by flow cytometry on U937 cells (sialic acid ligands); same table: S9-Fc alone 156, secondary alone 37.6; panel headed 'Isotype does not block'.
Test [6] has as its target human Siglec-9 expressed on human cells (human) (UniProt Q9Y336). The test can be described thus: flow cytometry on human primary macrophages, PE-conjugated secondary antibody only (no primary), background control.
For test [7] the target is unchanged. In words: flow cytometry on human primary dendritic cells, PE-conjugated secondary antibody only (no primary), background control.
Test [8] shares this target. In words: flow cytometry on human primary monocytes, PE-conjugated secondary antibody only (no primary), background control.

Chain of human Siglec-9 expressed on human cells (human) (Q9Y336 18-463): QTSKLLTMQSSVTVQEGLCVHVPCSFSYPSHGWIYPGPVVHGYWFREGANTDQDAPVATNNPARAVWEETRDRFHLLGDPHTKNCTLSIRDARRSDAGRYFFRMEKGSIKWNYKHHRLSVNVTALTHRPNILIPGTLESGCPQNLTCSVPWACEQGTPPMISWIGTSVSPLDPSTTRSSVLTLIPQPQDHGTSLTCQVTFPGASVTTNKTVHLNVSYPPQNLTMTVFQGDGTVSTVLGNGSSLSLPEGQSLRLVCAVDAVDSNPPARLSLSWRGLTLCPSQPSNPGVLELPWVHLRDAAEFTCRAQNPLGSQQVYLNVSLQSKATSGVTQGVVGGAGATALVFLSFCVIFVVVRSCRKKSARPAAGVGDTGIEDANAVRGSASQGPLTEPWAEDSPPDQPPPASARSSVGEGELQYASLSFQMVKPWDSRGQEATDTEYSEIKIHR
Chain of Siglec-9-Fc (R&D Systems, catalog number 1139-SL-050) (human) (Q9Y336 18-348 limits assumed): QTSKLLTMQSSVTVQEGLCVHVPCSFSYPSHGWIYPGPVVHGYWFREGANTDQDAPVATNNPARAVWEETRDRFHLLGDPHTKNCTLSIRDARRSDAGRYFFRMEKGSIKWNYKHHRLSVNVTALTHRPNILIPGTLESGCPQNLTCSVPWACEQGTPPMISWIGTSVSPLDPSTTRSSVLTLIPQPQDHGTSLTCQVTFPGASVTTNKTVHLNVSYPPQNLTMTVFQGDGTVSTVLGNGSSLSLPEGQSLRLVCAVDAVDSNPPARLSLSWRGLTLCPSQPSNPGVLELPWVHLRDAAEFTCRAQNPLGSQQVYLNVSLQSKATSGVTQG

In test [1], mIgG2a isotype control antibody yielded a % Positive of 8.45% and an MFI of 121. Besides, in test [2], the % Positive came out at 22.6% and the MFI turned out to be 164. In test [3], this substance registered a % Positive of 3.5% and an MFI of 127. In test [4], this substance gave a Percent Siglec-9 Surface Expression, DCs (% Siglec-9) of 98.6%; a Percent Siglec-9 Surface Expression, Macrophages (% Siglec-9) of 97.8%; a Percent Siglec-9 Surface Expression, Microglia (% Siglec-9) of 91.2%; a Percent Siglec-9 Surface Expression, Monocytes (% Siglec-9) of 101%. Further, the Percent Siglec-9 Surface Expression, THP-1 cells (% Siglec-9) in test [4] was found to be 95.9%.
Turning to Isotype (antibody), the Mean : PE-A (Siglec-9-Fc bound to U937 cells in the presence of the mAb) in test [5] was 203.
In test [1], mIgG2b isotype control antibody came in with a % Positive of 26.4% and an MFI of 319. In test [2], the % Positive worked out at 12.6% and the MFI worked out at 180. In test [3], this substance displayed a % Positive of 4% and an MFI of 145. In test [4], this substance displayed a Percent Siglec-9 Surface Expression, DCs (% Siglec-9) of 93.4%; a Percent Siglec-9 Surface Expression, Macrophages (% Siglec-9) of 97.2%; a Percent Siglec-9 Surface Expression, Microglia (% Siglec-9) of 91.7%; a Percent Siglec-9 Surface Expression, Monocytes (% Siglec-9) of 98.9%. In addition, the Percent Siglec-9 Surface Expression, THP-1 cells (% Siglec-9) in test [4] worked out at 98%.
With PE-conjugated secondary antibody, the % Positive turned out to be 3.58% in test [6], 7.05% in test [7] and 2.6% in test [8]. Further, the MFI stood at 153 in test [6], 90.1 in test [7] and 105 in test [8].
In test [1], mIgG1 isotype control antibody gave a % Positive of 12.3% and an MFI of 132. In test [2], this substance displayed a % Positive of 3.01% and an MFI of 115. In test [3], this substance displayed a % Positive of 2.6% and an MFI of 104. In test [4], this substance registered a Percent Siglec-9 Surface Expression, DCs (% Siglec-9) of 96.5%; a Percent Siglec-9 Surface Expression, Macrophages (% Siglec-9) of 99.3%; a Percent Siglec-9 Surface Expression, Microglia (% Siglec-9) of 90.3%; a Percent Siglec-9 Surface Expression, Monocytes (% Siglec-9) of 100%. In test [4], the Percent Siglec-9 Surface Expression, THP-1 cells (% Siglec-9) is 100%.
